Results published in publication PMC2700083, “A covalent peptide inhibitor of RGS4 identified in a focused one-bead, one compound library screen” (BMC Pharmacology, 2009).

Tests used:
Test in all cases: FCPIA (flow cytometry protein interaction assay, Luminex beads); Gαo affinities for RGS4Δ51N wild type and mutants on beads, with AMF
[1] = molecular target: MBP-RGS4Δ51N -7C mutant (all 7 cysteines removed) (UniProt P49799)
[2] = molecular target: MBP-RGS4Δ51N A132C in the -7C (UniProt P49799)
[3] = molecular target: MBP-RGS4Δ51N A148C in the -7C (UniProt P49799)
[4] = molecular target: MBP-RGS4Δ51N A71C in the -7C (UniProt P49799)
[5] = molecular target: MBP-RGS4Δ51N A95C in the -7C (UniProt P49799)
[6] = molecular target: MBP-RGS4Δ51N with no Cys in the C-terminus (UniProt P49799)
[7] = molecular target: MBP-RGS4Δ51N with no Cys in the RGS domain (UniProt P49799)

Gαo, Alexa Fluor 532-labeled, sequence (P59215 whole entry): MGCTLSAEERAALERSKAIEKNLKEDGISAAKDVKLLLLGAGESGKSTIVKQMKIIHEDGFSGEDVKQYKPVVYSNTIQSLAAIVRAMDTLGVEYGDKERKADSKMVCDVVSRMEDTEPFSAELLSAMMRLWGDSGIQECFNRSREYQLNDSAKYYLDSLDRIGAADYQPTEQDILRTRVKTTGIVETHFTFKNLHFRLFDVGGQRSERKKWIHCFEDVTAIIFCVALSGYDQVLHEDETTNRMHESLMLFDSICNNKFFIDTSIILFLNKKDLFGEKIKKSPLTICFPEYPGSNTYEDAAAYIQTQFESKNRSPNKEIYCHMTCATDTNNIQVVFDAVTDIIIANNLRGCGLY

- Kd [1]: 8.3 nM
- Kd [2]: 12.5 nM
- Kd [3]: 5.7 nM
- Kd [4]: 9.2 nM
- Kd [5]: 12 nM
- Kd [6]: 5 nM
- Kd [7]: 3.9 nM
Substance: Gαo, Alexa Fluor 532-labeled (from UniProt P59215 1-354) (natural protein)
